Laboratory results taken from article PMC12086574 (Molecular Biology of the Cell, 2025).

Biological target: the molecule itself
Experiment: SEC

B1: His6-SEPT7G (domain or fragment)
chain: GFEFTLMVVGESGLGKSTLINSLFLTDLYSPEYPGPSHRIKKTVQVEQSKVLIKEGGVQLLLTIVDTPGFGDAVDNSNCWQPVIDYIDSKFEDYLNAESRVNRRQMPDNRVQCCLYFIAPSGHGLKPLDIEFMKRLHEKVNIIPLIAKADTLTPEECQQFKKQIMKEIQEHKIKIYEFPETDDEEENKLVKKIKDRLPLAVVGSNTIIEVNGKRVRGRQYPWGVAEVENGEHCDFTILRNMLIRTHMQDLKDVTNNVHYENYRSRKLAAVT
- stoichiometry N: 2
